Results as given in paper PMC3554631, “Structural Basis of a Histone H3 Lysine 4 Demethylase Required for Stem Elongation in Rice” (PLoS Genetics, 2013).
Residue numbers refer to the chain shown, from its start. Names and notes keep the numbering of the source. Where no end group is shown, it is not given here. Me3 = trimethyl

T1: FA-J3NCZ, FLAG:HA-tagged JmjN-JmjC-zinc finger region of JMJ703 (amino acids 113 to 700) (rice, UniProt Q53WJ1 113-700)
T1 construct: JMJ703, rice; JmjN-JmjC-zinc finger region between amino acids 113 and 700; the only production of J3NCZ that the methods tell is the FLAG:HA-tagged one from tobacco cells (vector pFA121); source: tobacco leaf cells (Agrobacterium infection), purified with Anti-FLAG M2 magnetic beads
T1 sequence (looked up): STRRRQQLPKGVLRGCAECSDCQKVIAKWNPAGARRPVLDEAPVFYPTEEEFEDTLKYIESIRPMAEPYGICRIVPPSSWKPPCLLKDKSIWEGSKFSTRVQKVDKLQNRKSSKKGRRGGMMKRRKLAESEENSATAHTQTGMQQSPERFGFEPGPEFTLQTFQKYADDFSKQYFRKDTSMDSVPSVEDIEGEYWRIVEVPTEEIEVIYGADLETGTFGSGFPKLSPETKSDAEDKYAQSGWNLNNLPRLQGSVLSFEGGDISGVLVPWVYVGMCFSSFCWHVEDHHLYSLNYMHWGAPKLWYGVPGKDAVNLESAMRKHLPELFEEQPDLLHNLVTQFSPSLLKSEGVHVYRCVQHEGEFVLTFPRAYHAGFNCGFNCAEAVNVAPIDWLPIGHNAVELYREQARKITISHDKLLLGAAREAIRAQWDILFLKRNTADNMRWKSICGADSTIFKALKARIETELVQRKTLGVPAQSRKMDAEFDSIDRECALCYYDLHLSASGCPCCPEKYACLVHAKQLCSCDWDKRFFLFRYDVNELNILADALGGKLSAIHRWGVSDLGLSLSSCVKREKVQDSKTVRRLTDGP

B1: N496A: JMJ703 substitution mutant, methyl group-binding residue (protein, UniProt Q53WJ1 1-1238, looked up, variant N496A)
Lysine-specific demethylase …: MMGVTTTLNEDTEPSIPPGFGPFATLPLWGIHNDAKPAVTHSTPVQALQSIRKDSEECQPSAAVSRSDTPCSTSGTQTCRKSLRNRPPIDYSRFEHISDEDSDVEIVEKDVSSTRRRQQLPKGVLRGCAECSDCQKVIAKWNPAGARRPVLDEAPVFYPTEEEFEDTLKYIESIRPMAEPYGICRIVPPSSWKPPCLLKDKSIWEGSKFSTRVQKVDKLQNRKSSKKGRRGGMMKRRKLAESEENSATAHTQTGMQQSPERFGFEPGPEFTLQTFQKYADDFSKQYFRKDTSMDSVPSVEDIEGEYWRIVEVPTEEIEVIYGADLETGTFGSGFPKLSPETKSDAEDKYAQSGWNLNNLPRLQGSVLSFEGGDISGVLVPWVYVGMCFSSFCWHVEDHHLYSLNYMHWGAPKLWYGVPGKDAVNLESAMRKHLPELFEEQPDLLHNLVTQFSPSLLKSEGVHVYRCVQHEGEFVLTFPRAYHAGFNCGFNCAEAVAVAPIDWLPIGHNAVELYREQARKITISHDKLLLGAAREAIRAQWDILFLKRNTADNMRWKSICGADSTIFKALKARIETELVQRKTLGVPAQSRKMDAEFDSIDRECALCYYDLHLSASGCPCCPEKYACLVHAKQLCSCDWDKRFFLFRYDVNELNILADALGGKLSAIHRWGVSDLGLSLSSCVKREKVQDSKTVRRLTDGPRRSYMSQASAVSLVSSSTSNEQKDEGNKIMKIASPQTNNVCPSVEQRKSENISPLKEPCVRNELSCTTNSDSNGLQYNGGLGGHKGSAPGLPVSSSPSFSSNVATRPISTSSVSMKIVQGLVASKSCIQASSRTGDSRSLLGEHHNRSPAMIHDGTNMKSSLESSNNSCRLIASDYNATPCHSSKDQVLVTPGTNASVVTLKDSSQVHSASSQQFVRTGPWTQSASHEASSPSTSALKPSLDPPAMKNLYGGFTQGSAHPGPPSFSNQQPNDGRLQRTSESLPGVEARARGHPTVTAQPALEIHSRNGGAQKGPRIANVVHRFKCSVEPLEIGVVLSGRLWSSSQAIFPKGFRSRVKYFSIVDPIQMAYYISEILDAGMQGPLFMVKLENCPGEVFINLSPTKCWNMVRERLNMEIRRQLNMGKSNLPTLQPPGSVDGLEMFGLLSPPIVQAIWARDRDHICTEYWRSRPHVLIEDPNNRHMLSQGPPLLALRGLIQRANRDELQVLRSLMTNSNNLDDSSRQQAAHIIEEEIAKQLC
B2: K412A: JMJ703 substitution mutant, α-ketoglutaric acid-binding residue (protein, UniProt Q53WJ1 1-1238, looked up, variant K412A)
Lysine-specific demethylase …: B1 Lysine-specific demethylase … with K412A, A496N
B3: Y321A: JMJ703 substitution mutant, α-ketoglutaric acid-binding residue (protein, UniProt Q53WJ1 1-1238, looked up, variant Y321A)
Lysine-specific demethylase …: B1 Lysine-specific demethylase … with Y321A, A496N
B4: N404A: JMJ703 substitution mutant, α-ketoglutaric acid-binding residue (protein, UniProt Q53WJ1 1-1238, looked up, variant N404A)
Lysine-specific demethylase …: B1 Lysine-specific demethylase … with N404A, A496N

Columns and labels:
[1] = molecular target: FA-J3NCZ, FLAG:HA-tagged JmjN-JmjC-zinc finger region of JMJ703 (amino acids 113 to 700) (rice) (UniProt Q53WJ1); experiment: SPR; J3NCZ (FA-J3NCZ) with different concentrations of peptide; set-up for this protein not told in the methods
[2] = molecular target: c-JMJ703, catalytic core domain of JMJ703 (amino acids 139 to 498) (rice) (UniProt Q53WJ1); experiment: SPR; BIAcore 3000, 25°C; c-JMJ703 amine-coupled to a CM5 chip; peptides injected at various concentrations at 10 µL/min for 2 min in 10 mM HEPES pH 7.5, 150 mM NaCl, 0.005% Tween20; reference flow cell subtracted
H3K4me3 = experiment: H3K4 demethylation assay in tobacco cells of JMJ703 substitution mutants, H3K4me3; format: cell-based; conditions: mutant expressed transiently in tobacco cells, immunostaining of nuclei, at least 30 nuclei per transfection
Method: (§1) The cDNA fragment of the J3NCZ region was amplified using primers FAJ3NCZ-F and FAJ3NCZ-R and then cloned into pFA121 vector modified from pBI121 (GenBank: AF485783.1), in which GUS was replaced by 2×FLAG∶2×HA tag. The pFA121-J3NCZ plasmid was transferred into Agrobacterium tumefaciens strain EHA105 cells for tobacco infection with the help of Agrobacterium cells harboring P19 plasmids. For in vivo histone demethylation assay, tobacco infection and nuclei isolation were performed as previously described. The immunostaining protocol was modified from http://sites.bio.indiana.edu/~pikaardlab. Briefly, the nucleus solution was placed on a poly-lysine coated slide, air dried, and then refixed with 4% formaldehyde in KPBS (1.28 M NaCl, 20 mM KCl, 80 mM Na2HPO4, 20 mM KH2PO4, pH7.2) containing 1% Triton X-100 for 20 min. After 3 washes with KPBS-1% Triton, slides were blocked with blocking solution (1% BSA in KPBS-1% Triton) and incubated at 37°C for 30 min. The blocking solution was washed off with KPBS-1% Triton and the slides were incubated with both anti-HA and histone méthylation specific antibodies diluted in blocking solution to 1∶300 at 4°C overnight. After washing with KPBS, slides were blocked and incubated with fluorescent-labeled antibodies at 37°C for 2 h. After washing with KPBS thrice, nuclei were stained with 5 µg/mL 4,6-diamidino-2-phenylindole (DAPI), coated with a drop of VECTASHIELD Mounting Medium (H-1000, Vector Laboratories), and then covered with a coverslip followed by confocal microscope (Leica) detection. In vitro histone demethylation assays were performed as previously described. FA-J3NCZ was purified after overexpression with Anti-FLAG M2 magnetic beads according the manufacturer's instruction (Sigma).
(§2) Supplementary file pgen.1003239.s006.tif: Figure S6 Demethylation assays for JMJ703 substitution mutants that have been produced based on the structural data. The mutant names are labeled at the top left corner of each panel. Image panels from left to right are staining by DAPI, anti-HA and anti-methylated histones, respectively. Bar = 10 µm. At least 30 nuclei that expressed JMJ703 per transfection were observed and imaged. (TIF) Click here for additional data file.

H3K4me1 = experiment: H3K4 demethylation assay in tobacco cells of JMJ703 substitution mutants, H3K4me1; format: cell-based; conditions: mutant expressed transiently in tobacco cells, immunostaining of nuclei, at least 30 nuclei per transfection
Method: as §1, §2

H3K4me2 = experiment: H3K4 demethylation assay in tobacco cells of JMJ703 substitution mutants, H3K4me2; format: cell-based; conditions: mutant expressed transiently in tobacco cells, immunostaining of nuclei, at least 30 nuclei per transfection
Method: as §1, §2

[3] = molecular target: T2, c-JMJ703, catalytic core domain of JMJ703 (amino acids 139 to 498) (rice, UniProt Q53WJ1 139-498); experiment: SPR; BIAcore 3000, 25°C; c-JMJ703 amine-coupled to a CM5 chip; peptides injected at various concentrations at 10 µL/min for 2 min in 10 mM HEPES pH 7.5, 150 mM NaCl, 0.005% Tween20; reference flow cell subtracted; conditions: both partners purified
T2 construct: JMJ703, rice JmjC domain-containing histone H3K4 demethylase; amino acids 139 to 498, covering the JmjN domain (A139-K199), long beta-hairpin (D200-T271), mixed domain (L272-V377) and JmjC domain (L378-A498); Cloned into pET-28a with BamHI and XhoI; also called J3NC; catalytic core of JMJ703; source: E. coli Rosetta (DE3), purified (Ni-NTA, thrombin cleavage, Hitrap Q anion exchange)

[4] = molecular target: T1, FA-J3NCZ, FLAG:HA-tagged JmjN-JmjC-zinc …; experiment: SPR; J3NCZ (FA-J3NCZ) with different concentrations of peptide; set-up for this protein not told in the methods; conditions: both partners purified

Molecule | Kd [2] [µM] | H3K4me3 demethylation activity (H3K4me3) | H3K4me1 demethylation activity (H3K4me1) | H3K4me2 demethylation activity (H3K4me2) | further results
H3K4me1 peptide | 28.9 | – | – | – | Kd [1]: 12.6 µM
H3K4me0 peptide | 76.6 | – | – | – | –
H3K4me2 peptide | 19.3 | – | – | – | Kd [1]: 15.1 µM
B1 | – | yes | no | yes | –
B2 | – | no | no | no | –
B3 | – | yes | no | yes | –
B4 | – | yes | yes | yes | –
ARTK(Me3)QTARKS [H3K4me3 peptide (ARTKme3QTARKS)] | – | – | – | – | Kd [3]: 30.1 µM; Kd [4]: 15.9 µM
